Here are results for one substance from paper PMC6346213.

This assay has as its target COP9 signalosome (CSN) holo-complex (human (endogenous in HEK293)) (UniProt Q13098). The assay can be described thus: SEC; co-fractionation of native HEK293 lysate (freeze-thaw, 0.5% NP-40); Yarra-SEC-4000, 50 mM HEPES pH 7.5, 150 mM NaCl, 4°C; 81 fractions quantified by SWATH-MS; co-elution of protein profiles scored with CCprofiler (5% FDR) and by manual inspection. In general terms: SEC sorts molecules by how far they enter the pores of the column.

“And” between values parts separate entries of the source, which are not always exact repeats. Equal entries are not always repeated.

Chain of UniProt Q13098 (Q13098 whole entry, looked up, one chain of several): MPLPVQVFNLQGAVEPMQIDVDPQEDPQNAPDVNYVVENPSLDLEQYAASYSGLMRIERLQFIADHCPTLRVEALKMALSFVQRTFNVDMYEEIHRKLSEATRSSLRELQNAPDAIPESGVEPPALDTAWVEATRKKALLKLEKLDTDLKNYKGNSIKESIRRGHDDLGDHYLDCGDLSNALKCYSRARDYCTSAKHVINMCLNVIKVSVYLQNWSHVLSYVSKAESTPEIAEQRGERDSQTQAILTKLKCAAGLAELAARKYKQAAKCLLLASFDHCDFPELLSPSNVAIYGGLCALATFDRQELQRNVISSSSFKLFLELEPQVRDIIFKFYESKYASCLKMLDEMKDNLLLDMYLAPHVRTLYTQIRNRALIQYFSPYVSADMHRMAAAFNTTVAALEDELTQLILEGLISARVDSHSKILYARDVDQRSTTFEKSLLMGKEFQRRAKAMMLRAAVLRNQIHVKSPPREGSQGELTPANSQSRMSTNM

As for “E3-CRL substrate of the COP9 signalosome (components CUL4A and DDB2) (from UniProt Q13619 1-759; Q92466 1-427) (complex)”, the substrate-bound fraction of CSN holo-complex is 25% and 22%.
